In PMC2199204 (The Journal of Cell Biology, 2001):

Biological target: T1, endogenous RasGRP (human (endogenous in A172), UniProt O95267 1-797)
T1 sequence (looked up): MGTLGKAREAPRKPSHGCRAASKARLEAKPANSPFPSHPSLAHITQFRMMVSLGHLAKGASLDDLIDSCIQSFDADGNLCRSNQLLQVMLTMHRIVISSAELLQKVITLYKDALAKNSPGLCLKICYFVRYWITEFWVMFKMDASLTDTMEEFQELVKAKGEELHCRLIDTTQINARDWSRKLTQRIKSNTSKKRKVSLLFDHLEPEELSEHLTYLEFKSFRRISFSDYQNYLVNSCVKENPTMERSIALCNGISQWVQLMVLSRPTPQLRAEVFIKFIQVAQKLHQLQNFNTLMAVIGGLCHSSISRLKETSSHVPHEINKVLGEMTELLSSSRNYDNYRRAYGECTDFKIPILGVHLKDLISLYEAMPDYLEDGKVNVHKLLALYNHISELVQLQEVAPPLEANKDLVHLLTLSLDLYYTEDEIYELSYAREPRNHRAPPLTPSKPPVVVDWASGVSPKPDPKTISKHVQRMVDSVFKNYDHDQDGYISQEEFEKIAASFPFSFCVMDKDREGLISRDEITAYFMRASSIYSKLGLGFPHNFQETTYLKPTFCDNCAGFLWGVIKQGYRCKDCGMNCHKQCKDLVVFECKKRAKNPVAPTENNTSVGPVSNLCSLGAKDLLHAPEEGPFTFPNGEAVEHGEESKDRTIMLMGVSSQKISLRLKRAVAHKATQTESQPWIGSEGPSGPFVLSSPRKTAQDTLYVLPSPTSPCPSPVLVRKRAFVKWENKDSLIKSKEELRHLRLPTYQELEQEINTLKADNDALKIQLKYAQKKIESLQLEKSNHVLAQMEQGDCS
Experiment: co-IP

- fold associated DGK activity, PMA-treated over untreated cells: 1.9 fold
B1: endogenous DGKζ (enzyme)
chain: not shown
